Experimental findings from US20220242945A1 (SORRISO PHARMACEUTICALS, published 2022) are described below.

Test [1] deals with T1, recombinant human IL-23 (human, UniProt Q9NPF7 20-189; P29460 23-328).
T1 construct: Heterodimer of p19 and p40; also called hIL-23; interleukin-23; not shown: single C-terminal 6xHis tag
T1 sequence 1: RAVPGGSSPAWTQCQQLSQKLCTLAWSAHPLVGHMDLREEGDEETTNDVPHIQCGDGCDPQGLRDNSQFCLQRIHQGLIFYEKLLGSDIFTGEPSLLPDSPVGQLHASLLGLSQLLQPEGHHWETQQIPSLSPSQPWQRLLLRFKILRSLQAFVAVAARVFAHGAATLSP
T1 sequence 2: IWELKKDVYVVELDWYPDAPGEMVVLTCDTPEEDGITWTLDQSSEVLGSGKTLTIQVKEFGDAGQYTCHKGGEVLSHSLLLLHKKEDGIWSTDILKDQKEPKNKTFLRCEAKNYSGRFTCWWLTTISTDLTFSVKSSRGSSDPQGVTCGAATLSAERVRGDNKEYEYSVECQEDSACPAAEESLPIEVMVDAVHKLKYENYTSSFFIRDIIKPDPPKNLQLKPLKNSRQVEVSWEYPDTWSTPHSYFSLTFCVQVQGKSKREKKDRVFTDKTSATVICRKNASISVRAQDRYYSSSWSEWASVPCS
Description: IL-23-IL-23R neutralisation ELISA. Here is the method: (§1) Maxisorp 96-well plates were coated overnight with 50 μl/well 0.3 μg/ml IL-23R-Fc then blocked with 4% milk, 1% BSA.
The Family L ICVD 12G1 underwent sequence modification to produce multiple variant ICVDs. These variant ICVDs were tested in the potency and protease stability assays detailed above.
For orientation: In an ELISA, binding on a coated surface is turned into a signal by an enzyme label.

The target in test [2] is T1, recombinant human IL-23. As to the kind of experiment: IL-23-IL-23R inhibition ELISA (Evaluation Method A), side by side with brazikumab. Here is the method:
as §1

For test [3], the target named is T2, Human IL-12 (human, UniProt P29459 23-219; P29460 23-328).
T2 sequence (looked up) 1: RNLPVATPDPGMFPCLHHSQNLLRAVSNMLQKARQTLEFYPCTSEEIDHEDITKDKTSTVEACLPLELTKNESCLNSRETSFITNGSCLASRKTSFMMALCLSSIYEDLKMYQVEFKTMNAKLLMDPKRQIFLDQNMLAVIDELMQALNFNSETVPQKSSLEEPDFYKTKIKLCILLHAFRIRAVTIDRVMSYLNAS
T2 sequence (looked up) 2: T1 sequence 2
As to the kind of experiment: binding or inhibition ELISA (which of the two is not said).

Test [4] concerns the target T3, rhesus monkey IL-12 (rhesus monkey, UniProt P48091 23-219; P48095 23-328).
T3 sequence (looked up) 1: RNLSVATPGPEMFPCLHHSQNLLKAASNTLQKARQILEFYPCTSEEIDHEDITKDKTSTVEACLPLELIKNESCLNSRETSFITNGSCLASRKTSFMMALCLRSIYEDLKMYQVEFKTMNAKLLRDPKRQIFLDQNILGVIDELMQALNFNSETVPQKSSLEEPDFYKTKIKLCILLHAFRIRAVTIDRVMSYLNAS
T3 sequence (looked up) 2: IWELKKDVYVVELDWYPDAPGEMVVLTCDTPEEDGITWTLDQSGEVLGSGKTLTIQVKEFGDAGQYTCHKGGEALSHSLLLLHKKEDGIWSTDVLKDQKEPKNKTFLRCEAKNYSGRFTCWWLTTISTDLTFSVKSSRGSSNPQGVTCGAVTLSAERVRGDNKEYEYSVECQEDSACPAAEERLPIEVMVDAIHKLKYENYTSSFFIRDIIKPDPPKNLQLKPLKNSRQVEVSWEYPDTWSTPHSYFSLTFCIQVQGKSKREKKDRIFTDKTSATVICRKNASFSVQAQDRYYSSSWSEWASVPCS
The description is as above.

The target in test [5] is IL-6 (Homo sapiens (Human), UniProt P05231 30-212). The description is as above.
IL-6, sequence (P05231 30-212 limits assumed): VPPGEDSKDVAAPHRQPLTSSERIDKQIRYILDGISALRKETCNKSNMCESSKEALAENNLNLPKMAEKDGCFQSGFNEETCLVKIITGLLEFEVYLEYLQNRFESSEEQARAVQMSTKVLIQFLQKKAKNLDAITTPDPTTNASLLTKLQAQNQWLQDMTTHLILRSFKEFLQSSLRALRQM
Test [6] deals with T4, THP-1 derived nhIL-23 (human, UniProt Q9NPF7 20-189; P29460 23-328).
T4 sequence (looked up) 1: T1 sequence 1
T4 sequence (looked up) 2: T1 sequence 2
Description: cell-based or functional assay.

For test [7], the target named is T1, recombinant human IL-23. Description: SPR (Biacore), recombinant human IL-23 captured by an anti-p40 mAb on the chip, ICVD flowed over; average KD. (In general: SPR reads the build-up and loss of mass on a sensor chip optically.)

B1: ID-L253T (VHH)
VHH: DVQLVESGGGQVQPGGSLSLSCESSVSIWSFKVMGWFRQVPGKQRELVATITTGGSPDYSDSVKGRFTISRDYDKRTLYLQMNSLKPEDTAVYYCAGRLWAHITSSGHDVWGQGTQVTVSS
notes: Optimised variant of 12G1
Regarding B1, the results for the EC50 in test [1] and in test [2] were 230 pM and 202 pM, respectively. Moreover, the binding result in test [3], in test [4] and in test [5] was “no binding” throughout. In addition, the “Mouse splenocyte (EC50; mIL-17 secretion, Evaluation Method C)” value in test [6] worked out at 13500 pM. For the same molecule, the Kd (as a rule, a measure of binding affinity in units of concentration) in test [7] turned out to be 32 pM.
